Results as given in patent US20220048996A1 (F STAR BETA, published 2022).

Tests used:
[1] = target: T1, human OX40 expressed on DO11.10 cells (DO11.10-hOX40) (human, UniProt P43489 29-277); experiment: cell-based or functional assay
T1 sequence: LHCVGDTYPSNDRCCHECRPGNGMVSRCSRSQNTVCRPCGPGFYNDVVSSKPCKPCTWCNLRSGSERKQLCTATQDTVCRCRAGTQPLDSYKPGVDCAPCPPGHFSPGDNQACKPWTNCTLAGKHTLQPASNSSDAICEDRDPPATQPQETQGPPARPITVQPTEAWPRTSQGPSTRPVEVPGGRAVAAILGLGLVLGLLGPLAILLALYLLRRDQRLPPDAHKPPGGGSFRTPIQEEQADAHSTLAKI

[2] = target: T1, human OX40 expressed on DO11.10 cells …; experiment: flow cytometry on DO11.10 cells expressing the target
[3] = target: T2, cynomolgus CD137 expressed on DO11.10 cells (DO11.10-cCD137) (cynomolgus monkey, UniProt Q07011 24-255 (human entry)); experiment: as above
T2 chain: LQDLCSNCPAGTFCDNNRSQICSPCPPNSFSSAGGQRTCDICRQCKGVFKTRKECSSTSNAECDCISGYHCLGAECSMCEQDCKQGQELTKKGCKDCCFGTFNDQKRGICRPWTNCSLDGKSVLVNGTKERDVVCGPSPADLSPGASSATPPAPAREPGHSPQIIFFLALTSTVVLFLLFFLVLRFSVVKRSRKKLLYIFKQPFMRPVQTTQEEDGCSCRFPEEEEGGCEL

[4] = target: T3, cynomolgus OX40 expressed on DO11.10 cells (DO11.10-cOX40) (cynomolgus, UniProt P43489 29-277 (human entry)); experiment: as above
T3 chain: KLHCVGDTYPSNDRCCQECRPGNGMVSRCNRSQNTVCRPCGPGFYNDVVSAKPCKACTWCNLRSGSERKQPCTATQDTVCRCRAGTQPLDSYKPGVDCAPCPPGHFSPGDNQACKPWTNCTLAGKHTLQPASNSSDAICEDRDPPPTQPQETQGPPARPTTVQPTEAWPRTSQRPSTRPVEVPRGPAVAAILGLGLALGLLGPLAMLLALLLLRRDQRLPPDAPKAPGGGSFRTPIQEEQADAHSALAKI

[5] = target: T4, human CD137 expressed on DO11.10 cells (DO11.10-hCD137) (human, UniProt Q07011 24-255); experiment: as above
T4 construct: also called CD137 on human T cells

hCD137-mFc-Avi = target: T5, hCD137-mFc-Avi (human); experiment: SPR, antibody captured via anti-human Fc, dimeric antigen flowed, 1:1 fit
T5 construct: Dimer; a biotinylated version was used where the text says so; also called human CD137-mFc-Avi; hCD137-mFc-Avi-Bio
Description: (§1) For CD137 affinity determination, a Biacore CM5 chip (GE Healthcare) was coated with anti-human Fc using a Human Antibody Capture Kit (GE Healthcare) according to manufacturer's conditions, to a surface density of approximately 4000 RU. […] Human or cynomolgus CD137 (hCD137-mFc-Avi or cCD137-mFc-Avi) was flowed over at a range of concentrations in a three-fold dilution series starting at 200 nM, at a flow rate of 70 μl/min. The association time was 2 min and the dissociation time was 8 min. Running buffer was HBS-EP (GE Healthcare BR100188). Flow cells were regenerated by injecting 3M magnesium chloride at a flow rate of 30 μl/min for 30 seconds.
(§2) The binding kinetics were fit with a 1:1 Langmuir model to generate binding association (kₐ) and dissociation (kd) rates. Equilibrium binding constants (KD) were calculated by dividing the dissociation rate by the association rate for each sample. Data analysis was performed with BiaEvaluation software version 3.2.

cCD137-mFc-Avi = target: T6, cCD137-mFc-Avi (cynomolgus monkey); experiment: as above
T6 construct: 139 used; also called cyno CD137-mFc-Avi; recombinant cyno CD137
T6 chain: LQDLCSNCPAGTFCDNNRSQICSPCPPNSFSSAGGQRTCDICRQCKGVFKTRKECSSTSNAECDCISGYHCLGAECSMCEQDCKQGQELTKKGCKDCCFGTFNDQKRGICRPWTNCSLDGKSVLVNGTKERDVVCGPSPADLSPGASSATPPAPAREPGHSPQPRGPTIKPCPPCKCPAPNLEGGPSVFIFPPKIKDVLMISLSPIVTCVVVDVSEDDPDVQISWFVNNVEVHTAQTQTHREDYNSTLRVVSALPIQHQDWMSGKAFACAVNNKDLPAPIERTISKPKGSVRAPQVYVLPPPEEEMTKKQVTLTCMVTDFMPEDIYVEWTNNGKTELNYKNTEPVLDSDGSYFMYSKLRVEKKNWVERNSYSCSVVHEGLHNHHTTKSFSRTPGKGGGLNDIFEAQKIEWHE
Description: as §1, §2

[6] = target: T2, cynomolgus CD137 expressed on DO11.10 …; experiment: flow cytometry on DO11.10 cells expressing the target, mean ± SD of three experiments
Description: (§3) 50 μl of the antibody dilutions were added to the wells containing cells (final volume 100 μl) and incubated at 4° C. for 1 hour. […] The plates were washed and resuspended in 100 μl of PBS containing DAPI (Biotium, cat no 40043) at 1 μg/ml. The plates were analysed using a Canto II flow cytometer (BD Bioscience) and the data analysed using FlowJo. Dead cells were identified by their higher fluorescence on the UV (405 nm/450/50) channel and excluded from analysis. […] The GMFI data was fit using log (agonist) vs response (three parameters) in Graph Pad Prism Software to generate EC₅₀ values.
(§4) However, in this experiment, instead of using HEK cells to analyse the non-specific binding, non-transduced DO11.10 cells were used. […] The experiment was repeated three times to increase the reliability of the EC₅₀ values calculated.

[7] = target: T3, cynomolgus OX40 expressed on DO11.10 …; experiment: as above
Description: as §3, §4

[8] = target: T4, human CD137 expressed on DO11.10 cells …; experiment: as above
Description: as §3, §4
Target sequence in this assay (Q07011 24-255): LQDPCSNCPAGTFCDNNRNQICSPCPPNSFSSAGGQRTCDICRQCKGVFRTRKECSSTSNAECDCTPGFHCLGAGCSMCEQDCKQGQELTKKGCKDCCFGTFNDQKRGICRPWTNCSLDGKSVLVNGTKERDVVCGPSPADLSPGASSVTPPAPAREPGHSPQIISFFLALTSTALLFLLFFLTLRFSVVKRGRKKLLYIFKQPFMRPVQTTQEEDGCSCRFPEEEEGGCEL

SEA assay (PBMC), hIL-2 max response, crosslinked [1]: 33800 pg/mL
SEA assay (PBMC), hIL-2 max response, no crosslinker [1]: 35100 pg/mL
SEA assay (PBMC), hIL-2 release EC50, crosslinked [1]: 0.1 nM
SEA assay (PBMC), hIL-2 release EC50, no crosslinker [1]: 0.14 nM
EC50 [2]: 0.157 nM
EC50 [3]: 0.0803 nM
EC50 [4]: 0.38 nM
EC50 [5]: 0.129 nM
Kd (hCD137-mFc-Avi): 0.17 nM
Kd (cCD137-mFc-Avi): 0.15 nM
EC50 [6]: 0.12 nM
EC50 [7]: 0.71 nM
EC50 [8]: 0.11 nM
B1: FS20-22-49AA/FS30-10-16 (bispecific antibody, human IgG1, kappa, L234A L235A)
heavy: EVQLLESGGGLVQPGGSLRLSCAASGFTFSSYDMSWVRQAPGKGLEWVSDIDPTGSKTDYADSVKGRFTISRDNSKNTLYLQMNSLRAEDTAVYYCARDLLVYGFDYWGQGTLVTVSSASTKGPSVFPLAPSSKSTSGGTAALGCLVKDYFPEPVTVSWNSGALTSGVHTFPAVLQSSGLYSLSSVVTVPSSSLGTQTYICNVNHKPSNTKVDKKVEPKSCDKTHTCPPCPAPEAAGGPSVFLFPPKPKDTLMISRTPEVTCVVVDVSHEDPEVKFNWYVDGVEVHNAKTKPREEQYNSTYRVVSVLTVLHQDWLNGKEYKCKVSNKALPAPIEKTISKAKGQPREPQVYTLPPSRDEYWDQEVSLTCLVKGFYPSDIAVEWESNGDEQFAYKTTPPVLDSDGSFFLYSKLTVDQYRWNPADYFSCSVMHEALHNHYTQKSLSLSPG
light: EIVLTQSPGTLSLSPGERATLSCRASQSVSSSYLAWYQQKPGQAPRLLIYGASSRATGIPDRFSGSGSGTDFTLTISRLEPEDFAVYYCQQSYSYPVTFGQGTKVEIKRTVAAPSVFIFPPSDEQLKSGTASVVCLLNNFYPREAKVQWKVDNALQSGNSQESVTEQDSKDSTYSLSSTLTLSKADYEKHKVYACEVTHQGLSSPVTKSFNRGEC
notes: IgG1 with LALA; also called OX40/CD137 mAb^2; copies: 2 + 2
